Measured values taken from patent publication US20080027006A1.
Like-named read-outs stand apart in the source and are kept apart here.

B1: HR-N2 (916-973) (peptide)
peptide: IQESLTTTSTALGKLQDVVNQNAQALNTLVKQLSSNFGAISSVLNDILSRLDKVEAEV
modifications: not checked

How the values were obtained:
[1] = target: HR-C1 (1147-1185) (SARS coronavirus (Urbani strain))
[2] = target: HR-C4 (1151-1185) (SARS coronavirus (Urbani strain))
[3] = target: HR-C2 (1165-1185) (SARS coronavirus (Urbani strain))
[4] = target: HR-C3 (1158-1185) (SARS coronavirus (Urbani strain))
[5] = target: HR-C1 (1147-1185) (SARS coronavirus (Urbani strain)); test: CD thermal denaturation of the mixture at 222 nm
[6] = target: HR-C1 (1147-1185) (SARS coronavirus (Urbani strain)); test: CD at 222 nm of the peptide mixture, 22 °C, 0.05 M K2PO4 buffer
[7] = target: HR-C1 (1147-1185) (SARS coronavirus (Urbani strain)); test: SEC of equimolar mixture (Superdex 75)

Binder	[θ]222 observed (degrees·cm^2·dmol^-1) [1]	T1/2 of the complex [1] [°C]	other results
FNGIGVTQNVLYENQKQIANQFNKAISQIQESLTT (modifications not checked) [HR-N6 (888-922)]	-8600		
IQESLTTTSTALGKLQDVVNQNAQALNTLVKQLSS (modifications not checked) [HR-N10 (916-950)]	-17700	57	T1/2 of the complex [2]: 56 °C; [θ]222 observed (degrees·cm^2·dmol^-1) [2]: -17900; [θ]222 observed (degrees·cm^2·dmol^-1) [3]: -3800; [θ]222 observed (degrees·cm^2·dmol^-1) [4]: -4900; increase of T1/2 from HR-C1 [5]: 24 °C
MQMAYRFNGIGVTQNVLYENQKQIANQFNKAISQI (modifications not checked) [HR-N5 (882-916)]			[θ]222 observed (degrees·cm^2·dmol^-1) [6]: -8500
TSTALGKLQDVVNQNAQALNTLVKQLSSNFGAISS (modifications not checked) [HR-N11 (923-957)]	-8000		
QNVLYENQKQIANQFNKAISQIQESLTTTSTALGK (modifications not checked) [HR-N7 (895-929)]	-7400		
QKQIANQFNKAISQIQESLTTTSTALGKLQDVVNQ (modifications not checked) [HR-N8 (902-936)]	-7900		
B1	-17900	74	rise of T1/2 relative to HR-N2 alone [5]: 6 °C
FNKAISQIQESLTTTSTALGKLQDVVNQNAQALNT (modifications not checked) [HR-N9 (909-943)]	-10800	36	higher molecular weight complex, percent of observed SEC area units [7]: 30%; rise of T1/2 relative to HR-C1 alone [5]: 3 °C
